One may read the Kd as the free concentration of one partner at which half of the binding sites on the other are occupied at equilibrium, for simple one-to-one binding. Low readings indicate tighter binding, high ones weaker binding.

The target in the test is biotinylated version of human DLL3 protein expressed as a human IgG1 fusion protein (human) (UniProt Q9NYJ7). Nature of the test: Octet BLI, biotinylated DLL3-IgG1 on streptavidin tips, single 50 nM. On the technique in general: BLI is a label-free optical method that tracks binding on a fibre tip over time.
Chain of biotinylated version of human DLL3 protein expressed as a human IgG1 fusion protein (human) (Q9NYJ7 27-492 limits assumed): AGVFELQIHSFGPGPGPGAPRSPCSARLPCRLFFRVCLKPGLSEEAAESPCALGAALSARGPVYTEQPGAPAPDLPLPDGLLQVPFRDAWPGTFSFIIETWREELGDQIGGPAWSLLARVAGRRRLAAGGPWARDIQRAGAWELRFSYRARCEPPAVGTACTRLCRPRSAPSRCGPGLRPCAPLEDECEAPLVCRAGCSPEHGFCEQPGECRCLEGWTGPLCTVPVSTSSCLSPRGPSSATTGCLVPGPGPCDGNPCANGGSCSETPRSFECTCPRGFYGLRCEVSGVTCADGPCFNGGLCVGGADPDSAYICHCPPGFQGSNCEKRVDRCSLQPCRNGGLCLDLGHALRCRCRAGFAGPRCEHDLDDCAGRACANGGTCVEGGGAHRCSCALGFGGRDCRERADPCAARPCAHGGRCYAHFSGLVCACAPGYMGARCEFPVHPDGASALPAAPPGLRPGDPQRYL

B1: anti-DLL3 trispecific protein containing 4H05 (protein, part only; not given: CD3 binder and albumin binder, part only)
chain, part: EVQLVESGGGLVQPGGSLTLSCAASGSSVSRLSMAWYRQAPGKKRELVAGISARGSTDYIDSVKGRFTISRDNAKNSVYLQMNSLRAEDTAVYYCYAYRWTTRSTYWGQGTLVTVSSGGGGSGGGSGGGGSGGGSHHHHHH
Regarding B1, the Kd came out at 64 nM.

The values above are taken from patent US20200095340A1.
